Measurements published in PMC9142589, “Automated vitrification of cryo-EM samples with controllable sample thickness using suction and real-time optical inspection” (Nature Communications, 2022).

Biological target: the molecule itself
Test: cryo-EM structure; single particle analysis; apoferritin at 2.5 µM in 150 mM NaCl, 25 mM Tris pH 7.5, 2 mM DTT; 91,000 particles; X-ray model PDB 6RJH fitted into the map

B1: Horse spleen apoferritin (natural protein)
chain: SQIRQNYSTEVEAAVNRLVNLYLRASYTYLSLGFYFDRDDVALEGVCHFFRELAEEKREGAERLLKMQNQRGGRALFQDLQKPSQDEWGTTLDAMKAAIVLEKSLNQALLDLHALGSAQADPHLCDFLESHFLDEEVKLIKKMGDHLTNIQRLVGSQAGLGEYLFERLTLK
notes: horse spleen apoferritin; the X-ray model of horse spleen apoferritin (PDB 6RJH) was fitted into the map; source: bought: Sigma (9013-31-4), purified by gel filtration (Superdex 200 Increase 3.2/300) immediately before vitrification
B1: binds.
